Measurements reported in patent publication US20210238276A1 (INTEGRAL MOLECULAR, published 2021).

Legend:
Assay in all cases: flow cytometry, alanine-scan library in HEK-293T
hsGLUT4 F314A = target: T1, hsGLUT4 F314A (human, UniProt P14672 1-509)
T1 sequence: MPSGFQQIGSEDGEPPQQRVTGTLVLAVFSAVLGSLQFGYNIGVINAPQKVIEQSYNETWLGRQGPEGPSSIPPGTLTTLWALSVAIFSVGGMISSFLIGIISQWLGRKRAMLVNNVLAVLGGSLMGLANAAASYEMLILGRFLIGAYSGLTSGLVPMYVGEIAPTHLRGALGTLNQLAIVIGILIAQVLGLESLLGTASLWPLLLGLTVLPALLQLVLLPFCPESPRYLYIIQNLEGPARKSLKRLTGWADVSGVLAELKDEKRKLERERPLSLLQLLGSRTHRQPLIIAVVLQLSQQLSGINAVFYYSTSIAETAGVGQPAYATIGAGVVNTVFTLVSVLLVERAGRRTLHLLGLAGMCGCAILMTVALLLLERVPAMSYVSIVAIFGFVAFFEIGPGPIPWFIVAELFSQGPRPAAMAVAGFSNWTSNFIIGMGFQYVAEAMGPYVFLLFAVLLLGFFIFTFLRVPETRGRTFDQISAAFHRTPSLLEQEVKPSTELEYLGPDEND
Method in brief: (§1)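 HEK-293T cells expressing individual GLUT4 alanine mutants were stained 48 h post-transfection with anti-GLUT4 scFv MAbs (2 μg/ml), then biotinylated secondary and streptavidin-PerCP, and read by high-throughput flow cytometry. Where used, cytochalasin B (10 uM final) was given for 30 min before and during primary antibody staining.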

hsGLUT4 R416A = target: T2, hsGLUT4 R416A (human, UniProt P14672 1-509)
T2 sequence: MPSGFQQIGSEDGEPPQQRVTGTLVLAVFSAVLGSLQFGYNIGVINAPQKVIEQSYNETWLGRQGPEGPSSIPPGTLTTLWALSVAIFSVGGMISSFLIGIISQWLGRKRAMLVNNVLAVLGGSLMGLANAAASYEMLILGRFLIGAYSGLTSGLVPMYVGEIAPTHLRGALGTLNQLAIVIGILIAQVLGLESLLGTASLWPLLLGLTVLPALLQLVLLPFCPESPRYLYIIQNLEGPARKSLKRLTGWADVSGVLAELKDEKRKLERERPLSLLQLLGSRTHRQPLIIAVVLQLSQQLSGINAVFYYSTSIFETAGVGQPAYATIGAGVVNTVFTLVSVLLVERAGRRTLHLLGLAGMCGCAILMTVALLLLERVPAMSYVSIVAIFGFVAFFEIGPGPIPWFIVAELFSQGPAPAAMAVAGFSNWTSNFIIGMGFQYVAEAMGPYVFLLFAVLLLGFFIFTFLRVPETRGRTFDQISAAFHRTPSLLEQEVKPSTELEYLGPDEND
Method in brief: as §1

hsGLUT4 L155A = target: T3, hsGLUT4 L155A (human, UniProt P14672 1-509)
T3 sequence: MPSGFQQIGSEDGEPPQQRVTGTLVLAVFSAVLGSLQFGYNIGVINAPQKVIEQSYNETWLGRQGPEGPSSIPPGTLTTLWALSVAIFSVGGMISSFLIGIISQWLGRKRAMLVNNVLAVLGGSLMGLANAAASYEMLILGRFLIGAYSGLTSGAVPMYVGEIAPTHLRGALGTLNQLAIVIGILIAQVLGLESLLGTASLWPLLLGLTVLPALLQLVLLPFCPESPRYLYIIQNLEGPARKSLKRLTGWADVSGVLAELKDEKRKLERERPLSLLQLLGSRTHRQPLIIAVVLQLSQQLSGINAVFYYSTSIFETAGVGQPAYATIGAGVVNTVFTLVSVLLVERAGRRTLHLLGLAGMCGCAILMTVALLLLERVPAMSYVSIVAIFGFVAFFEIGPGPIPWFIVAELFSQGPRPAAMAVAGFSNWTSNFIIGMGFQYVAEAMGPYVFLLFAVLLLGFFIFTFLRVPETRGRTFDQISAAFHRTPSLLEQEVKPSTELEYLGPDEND
Method in brief: as §1

hsGLUT4 Y502A = target: T4, hsGLUT4 Y502A (human, UniProt P14672 1-509)
T4 sequence: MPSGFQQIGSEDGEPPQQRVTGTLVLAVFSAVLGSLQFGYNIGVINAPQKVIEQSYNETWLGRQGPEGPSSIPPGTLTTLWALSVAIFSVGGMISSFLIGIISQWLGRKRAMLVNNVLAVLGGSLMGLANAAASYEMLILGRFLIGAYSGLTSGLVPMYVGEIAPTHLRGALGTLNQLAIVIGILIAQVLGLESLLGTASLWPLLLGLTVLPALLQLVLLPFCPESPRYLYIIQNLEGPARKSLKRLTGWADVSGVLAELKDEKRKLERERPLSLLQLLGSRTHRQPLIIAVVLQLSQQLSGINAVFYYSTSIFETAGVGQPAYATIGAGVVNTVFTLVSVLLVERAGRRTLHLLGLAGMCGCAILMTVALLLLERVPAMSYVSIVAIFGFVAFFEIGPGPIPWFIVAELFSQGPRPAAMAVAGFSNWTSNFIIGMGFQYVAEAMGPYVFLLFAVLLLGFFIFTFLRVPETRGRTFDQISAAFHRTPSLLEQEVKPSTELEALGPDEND
Method in brief: as §1

1F8 (antibody)
% of binding to wild type GLUT4 (hsGLUT4 F314A): 91% | % of binding to wild type GLUT4 (hsGLUT4 R416A): 73% | % of binding to wild type GLUT4 (hsGLUT4 L155A): 91% | % of binding to wild type GLUT4 (hsGLUT4 Y502A): 51%

B1: AB111 (Fc fusion)
scFv: ALTQPSSVSANPGETVKITCSGSGSWYGWFQQKSPGSAPVTVIYSNDKRPSDIPSRFSGSKSGSTSTLTITGVQVEDEAVYYCGNWDIFGAGTTLTVLGQSSRSSGGGGSSGGGGSAVTLDESGGGLQTPGGALSLVCKASGFTFSSHGMGWVRQAPGKGLEWVASISTGRYTFYAPAVKGRATISRDNGQSTVRLQLNNLRAEDTATYYCTKCAGLNGCGGGEIDAWGHGTEVIVSS
notes: Bivalent scFv-Fc; also called MAb AB111; not shown: Fc fragment of human IgG1, cloned in frame with the scFv
% of binding to wild type GLUT4 (hsGLUT4 F314A): 166% | % of binding to wild type GLUT4 (hsGLUT4 R416A): 157% | % of binding to wild type GLUT4 (hsGLUT4 L155A): 57% | % of binding to wild type GLUT4 (hsGLUT4 Y502A): 169%

B2: AB108 (Fc fusion)
scFv: ALTQPSSVSANLGGTVKITCSGSSGSYGWYQQKAPGSAPVTLIYRNDKRPSDIPSRFSGSESGSTGTLTITGVQAEDEAVYFCGGYDSSAGYAAFGAGTTLTVLGQSSRSSGGGGSSGGGGSAVTLDESGGGLQTPGGALSLVCKASGFTFSSHGMGWVRQAPGKGLEWVGSISTGRYTFYAPAVKGRATISRDNGQSTLRLQLNNLRAEDTGTYYCTKCAGLNGCGGGEIDAWGHGTEVIVSS
notes: Bivalent scFv-Fc; also called MAb AB108; not shown: Fc fragment of human IgG1, cloned in frame with the scFv
% of binding to wild type GLUT4 (hsGLUT4 F314A): 92% | % of binding to wild type GLUT4 (hsGLUT4 R416A): 67% | % of binding to wild type GLUT4 (hsGLUT4 L155A): 42% | % of binding to wild type GLUT4 (hsGLUT4 Y502A): 94%

B3: AB101 (scFv)
scFv: ALTQPSSVSANPGETVKITCSGSSNSYGWYQQKSPGSAPVTVIYYNDKRPSDIPSRFSGSKSDSTHTLTITGVRAEDEAVYFCGSYDSTYVGIFGAGTTLTVLGQSSRSSGGGGSSGGGGSAVTLDESGGGLQTPGGTLSLVCKASGFTFSSNAMGWVRQAPGKGLEWVAGISSDGRYTKYGSAVKGRATISRDNGQSTVRLQLNNLRAEDTGTYFCAKAFGNNYRRIYAGQIDAWGHGTEVIVSS
notes: Chicken-derived clone used as a control; the four lead clones were tested as scFv-human IgG1 Fc; also called MAb AB101
% of binding to wild type GLUT4 (hsGLUT4 F314A): 91% | % of binding to wild type GLUT4 (hsGLUT4 R416A): 69% | % of binding to wild type GLUT4 (hsGLUT4 L155A): 88% | % of binding to wild type GLUT4 (hsGLUT4 Y502A): 4%
